The values that follow come from the PETadex activity labels (doi:10.1002/cssc.202101062).

Substitutions are numbered along the chain they refer to.

Substrate in data set [1]: PET
As to the kind of experiment: Proxy for plastic degradation [Released monomer concentration (HPLC/LC-MS) (TPA+MHET)]. The settings on record: pH 8.

Substrate in data set [2]: PET
As to the kind of experiment: Proxy for plastic degradation [Weight/mass loss]. The conditions noted are these: pH 8.

Substrate in data set [3]: gfPET
As to the kind of experiment: Proxy for plastic degradation [Weight/mass loss]. The settings on record: pH 8.

Substrate in data set [4]: gfPET
As to the kind of experiment: Proxy for plastic degradation [Released monomer concentration (HPLC/LC-MS) (TPA+MHET+BHET)].

B1: unnamed (protein)
chain: MDGVLWRVRTAALMAALLALAAWALVWASPSVEAQSNPYQRGPNPTRSALTADGPFSVATYTVSRLSVSGFGGGVIYYPTGTSLTFGGIAMSPGYTADASSLAWLGRRLASHGFVVLVINTNSRFDYPDSRASQLSAALNYLRTSSPSAVRARLDANRLAVAGHSMGGGGTLRIAEQNPSLKAAVPLTPWHTDKTFNTSVPVLIVGAEADTVAPVSQHAIPFYQNLPSTTPKVYVELDNASHFAPNSNNAAISVYTISWMKLWVDNDTRYRQFLCNVNDPALSDFRTNNRHCQ
For the protein B1, the “Proxy for plastic degradation” value with PET [1] (0 h) stood at 0 mM; in the data set with PET [1] (4 h), 3 mM; in the data set with PET [1] (8 h), 7 mM; in the data set with PET [1] (16 h) it was 29 mM.

B2: unnamed (protein)
chain: MANPYERGPNPTDALLEARSGPFSVSEENVSRLSASGFGGGTIYYPRENNTYGAVAISPGYTGTEASIAWLGERIASHGFVVITIDTITTLDQPDSRAEQLNAALNHMINRASSTVRSRIDSSRLAVMGHSMGGGGSLRLASQRPDLKAAIPLTPWHLNKNWSSVRVPTLIIGADLDTIAPVLTHARPFYNSLPTSISKAYLELDGATHFAPNIPNKIIGKYSVAWLKRFVDNDTRYTQFLCPGPRDGLFGEVEEYRSTCPF
For B2, the “Proxy for plastic degradation” value came out at 0.5% with PET [2] (45 °C); 1% with PET [2] (50 °C); 1% with PET [2] (55 °C); 1% with PET [2] (60 °C); 15% with PET [2] (65 °C); 18% with PET [2] (70 °C). Also, the “Proxy for plastic degradation” value with PET [2] (75 °C) came to 15%.

B3: unnamed (protein)
chain: B2 chain with R166T, L183A, R187K, T195S
Consider B3, for which the “Proxy for plastic degradation” value with gfPET [3] (65 °C) came to 7%; with gfPET [3] (70 °C) it was 8%; with gfPET [3] (75 °C) it was 2%; with gfPET [4] (40 °C), 0 mmol/h; with gfPET [4] (50 °C) it was 0.05 mmol/h; with gfPET [4] (55 °C) it was 0.08 mmol/h. The “Proxy for plastic degradation” value was 0.18 mmol/h with gfPET [4] (60 °C); 0.2 mmol/h with gfPET [4] (65 °C); 0.2 mmol/h with gfPET [4] (70 °C); 0.08 mmol/h with gfPET [4] (75 °C); 0.05 mmol/h with gfPET [4] (80 °C); 0 mmol/h with gfPET [4] (85 °C).

B4: unnamed (protein)
chain: MENPYERGPDPTESSIEAVRGPFAVAQTTVSRLQADGFGGGTIYYPTDTSQGTFGAVAISPGFTAGQESIAWLGPRIASQGFVVITIDTITRLDQPDSRGRQLQAALDHLRTNSVVRNRIDPNRMAVMGHSMGGGGALSAAANNTSLEAAIPLQGWHTRKNWSSVRTPTLVVGAQLDTIAPVSSHSEAFYNSLPSDLDKAYMELRGASHFVSNTPDTTTAKYSIAWLKRFVDNDLRYEQFLCPAPDDFAISEYRATCPF
Take B4: the “Proxy for plastic degradation” value with PET [2] (65 °C) was found to be 15%; with PET [2] (70 °C), 20%; with PET [2] (75 °C) it was 18%; with gfPET [3] (65 °C), 18%; with gfPET [3] (70 °C) it was 18%; in the data set with gfPET [3] (75 °C), 18%. Besides, the “Proxy for plastic degradation” value came out at 0 mmol/h in the data set with gfPET [4] (40 °C); 0.08 mmol/h with gfPET [4] (50 °C); 0.11 mmol/h in the data set with gfPET [4] (55 °C); 0.18 mmol/h with gfPET [4] (60 °C); 0.25 mmol/h with gfPET [4] (65 °C); 0.3 mmol/h with gfPET [4] (70 °C). Moreover, the figures for the “Proxy for plastic degradation” value with gfPET [4] (75 °C), in the data set with gfPET [4] (80 °C) and with gfPET [4] (85 °C) were 0.38 mmol/h, 0.41 mmol/h and 0.38 mmol/h, respectively.

B5: unnamed (protein)
chain: B4 chain with E2A, F210L, N233D, A255S
On to B5, for which the “Proxy for plastic degradation” value stood at 75% with PET [2] (65 °C, part of the chain shown); 95% with PET [2] (70 °C, part of the chain shown); 60% in the data set with PET [2] (75 °C, part of the chain shown); 77% with gfPET [3] (65 °C, part of the chain shown); 90% with gfPET [3] (70 °C, part of the chain shown); 58% with gfPET [3] (75 °C, part of the chain shown). The “Proxy for plastic degradation” value with PET [1] (0 h, part of the chain shown) worked out at 0 mM; with PET [1] (4 h, part of the chain shown), 15 mM; with PET [1] (8 h, part of the chain shown), 26 mM; in the data set with PET [1] (16 h, part of the chain shown), 50 mM; with gfPET [4] (40 °C, part of the chain shown), 0 mmol/h; with gfPET [4] (50 °C, part of the chain shown), 0.45 mmol/h. The “Proxy for plastic degradation” value turned out to be 0.8 mmol/h with gfPET [4] (55 °C, part of the chain shown); 0.9 mmol/h in the data set with gfPET [4] (60 °C, part of the chain shown); 1.1 mmol/h with gfPET [4] (65 °C, part of the chain shown); 1.4 mmol/h with gfPET [4] (70 °C, part of the chain shown); 1.7 mmol/h with gfPET [4] (75 °C, part of the chain shown); 1.65 mmol/h with gfPET [4] (80 °C, part of the chain shown). Also, the “Proxy for plastic degradation” value in the data set with gfPET [4] (85 °C, part of the chain shown) is 0.9 mmol/h.
